Data reported in article PMC10754148 (Cell, 2023).

B1: FLAG-LRR recombinant protein (LRR domain of LRRC37B, amino acids 468-841) (domain or fragment)
chain: AAAEKTRAPHPDQVQTLHRSLTEVTGPPTKLESSQDSLVQSETAPEEQKASTSTNICELCTCGDETLSCVGLSPKQRLRQVPVPEPDTYNGIFTTLNFQGNYISYLDGNVWKAYSWTEKLILSENYLTELPKDSFEGLLYLQYLDLSCNKIRYIERQTFESLPFLQYINLGCNLITKLSLGTFQAWHGMQFLHNLILNRNPLTTVEDPYLFELPALKYLDMGTTHITLTTLKNILTMTVELEKLILPSHMACCLCQFKNSIEAVCKTVKLHCNTACLTNSIHCPEEASVGNPEGAFMKMLQARKQHMSTQLTIESEAPSDSSGINLSGFGGDQLEIQLTEQLRSLIPNEDVRKFMSHVIRTLKMECSETHVQGSCAKLSTG
B2: F13ExonS-biotin synthetic peptide (peptide)
peptide: MAAAIASSLIRQKRQAREREKSNACKCVSSPSKGKTSCDKNKLNVFSRVKLFGSKKRRRRRPE
modifications: not fully specified (C-terminus)

Assays:
[1] = target: T1, 5/6FAM-F13ExonS synthetic peptide (5/6FAM on the N-terminus); test: fluorescence polarisation
T1 peptide: B2 peptide

[2] = target: pdisplay-LRRC37B_ECTO (amino acids 28-905) (human, UniProt Q96QE4 28-905); test: cell-surface binding assay
Chain of pdisplay-LRRC37B_ECTO (amino acids 28-905) (Q96QE4 28-905): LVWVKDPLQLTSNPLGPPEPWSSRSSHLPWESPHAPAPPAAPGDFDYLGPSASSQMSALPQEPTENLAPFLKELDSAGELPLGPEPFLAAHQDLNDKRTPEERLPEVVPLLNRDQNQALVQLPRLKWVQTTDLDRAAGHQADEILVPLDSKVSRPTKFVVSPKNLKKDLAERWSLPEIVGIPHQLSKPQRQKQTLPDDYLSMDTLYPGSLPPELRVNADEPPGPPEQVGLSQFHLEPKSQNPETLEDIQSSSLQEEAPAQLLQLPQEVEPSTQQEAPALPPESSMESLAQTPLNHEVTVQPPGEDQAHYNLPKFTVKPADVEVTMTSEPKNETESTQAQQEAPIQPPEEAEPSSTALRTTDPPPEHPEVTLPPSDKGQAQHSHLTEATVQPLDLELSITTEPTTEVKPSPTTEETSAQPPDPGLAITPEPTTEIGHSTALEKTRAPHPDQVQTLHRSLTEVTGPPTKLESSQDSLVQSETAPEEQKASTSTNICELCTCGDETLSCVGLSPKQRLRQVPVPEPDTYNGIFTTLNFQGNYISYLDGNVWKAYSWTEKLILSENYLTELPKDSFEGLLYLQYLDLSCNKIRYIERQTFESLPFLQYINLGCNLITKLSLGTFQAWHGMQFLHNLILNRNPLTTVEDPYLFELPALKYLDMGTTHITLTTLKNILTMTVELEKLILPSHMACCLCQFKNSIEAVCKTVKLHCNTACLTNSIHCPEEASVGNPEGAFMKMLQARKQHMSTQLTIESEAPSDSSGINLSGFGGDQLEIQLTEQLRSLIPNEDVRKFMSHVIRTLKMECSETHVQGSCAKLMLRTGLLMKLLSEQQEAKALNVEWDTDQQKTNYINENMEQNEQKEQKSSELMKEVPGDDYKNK

[3] = target: Nav1.6 (SCN8A), transfected cDNA (UniProt Q9UQD0 1-1980); test: cell-surface binding assay
Chain of Nav1.6 (SCN8A), transfected cDNA (Q9UQD0 whole entry, the tested form may be a part): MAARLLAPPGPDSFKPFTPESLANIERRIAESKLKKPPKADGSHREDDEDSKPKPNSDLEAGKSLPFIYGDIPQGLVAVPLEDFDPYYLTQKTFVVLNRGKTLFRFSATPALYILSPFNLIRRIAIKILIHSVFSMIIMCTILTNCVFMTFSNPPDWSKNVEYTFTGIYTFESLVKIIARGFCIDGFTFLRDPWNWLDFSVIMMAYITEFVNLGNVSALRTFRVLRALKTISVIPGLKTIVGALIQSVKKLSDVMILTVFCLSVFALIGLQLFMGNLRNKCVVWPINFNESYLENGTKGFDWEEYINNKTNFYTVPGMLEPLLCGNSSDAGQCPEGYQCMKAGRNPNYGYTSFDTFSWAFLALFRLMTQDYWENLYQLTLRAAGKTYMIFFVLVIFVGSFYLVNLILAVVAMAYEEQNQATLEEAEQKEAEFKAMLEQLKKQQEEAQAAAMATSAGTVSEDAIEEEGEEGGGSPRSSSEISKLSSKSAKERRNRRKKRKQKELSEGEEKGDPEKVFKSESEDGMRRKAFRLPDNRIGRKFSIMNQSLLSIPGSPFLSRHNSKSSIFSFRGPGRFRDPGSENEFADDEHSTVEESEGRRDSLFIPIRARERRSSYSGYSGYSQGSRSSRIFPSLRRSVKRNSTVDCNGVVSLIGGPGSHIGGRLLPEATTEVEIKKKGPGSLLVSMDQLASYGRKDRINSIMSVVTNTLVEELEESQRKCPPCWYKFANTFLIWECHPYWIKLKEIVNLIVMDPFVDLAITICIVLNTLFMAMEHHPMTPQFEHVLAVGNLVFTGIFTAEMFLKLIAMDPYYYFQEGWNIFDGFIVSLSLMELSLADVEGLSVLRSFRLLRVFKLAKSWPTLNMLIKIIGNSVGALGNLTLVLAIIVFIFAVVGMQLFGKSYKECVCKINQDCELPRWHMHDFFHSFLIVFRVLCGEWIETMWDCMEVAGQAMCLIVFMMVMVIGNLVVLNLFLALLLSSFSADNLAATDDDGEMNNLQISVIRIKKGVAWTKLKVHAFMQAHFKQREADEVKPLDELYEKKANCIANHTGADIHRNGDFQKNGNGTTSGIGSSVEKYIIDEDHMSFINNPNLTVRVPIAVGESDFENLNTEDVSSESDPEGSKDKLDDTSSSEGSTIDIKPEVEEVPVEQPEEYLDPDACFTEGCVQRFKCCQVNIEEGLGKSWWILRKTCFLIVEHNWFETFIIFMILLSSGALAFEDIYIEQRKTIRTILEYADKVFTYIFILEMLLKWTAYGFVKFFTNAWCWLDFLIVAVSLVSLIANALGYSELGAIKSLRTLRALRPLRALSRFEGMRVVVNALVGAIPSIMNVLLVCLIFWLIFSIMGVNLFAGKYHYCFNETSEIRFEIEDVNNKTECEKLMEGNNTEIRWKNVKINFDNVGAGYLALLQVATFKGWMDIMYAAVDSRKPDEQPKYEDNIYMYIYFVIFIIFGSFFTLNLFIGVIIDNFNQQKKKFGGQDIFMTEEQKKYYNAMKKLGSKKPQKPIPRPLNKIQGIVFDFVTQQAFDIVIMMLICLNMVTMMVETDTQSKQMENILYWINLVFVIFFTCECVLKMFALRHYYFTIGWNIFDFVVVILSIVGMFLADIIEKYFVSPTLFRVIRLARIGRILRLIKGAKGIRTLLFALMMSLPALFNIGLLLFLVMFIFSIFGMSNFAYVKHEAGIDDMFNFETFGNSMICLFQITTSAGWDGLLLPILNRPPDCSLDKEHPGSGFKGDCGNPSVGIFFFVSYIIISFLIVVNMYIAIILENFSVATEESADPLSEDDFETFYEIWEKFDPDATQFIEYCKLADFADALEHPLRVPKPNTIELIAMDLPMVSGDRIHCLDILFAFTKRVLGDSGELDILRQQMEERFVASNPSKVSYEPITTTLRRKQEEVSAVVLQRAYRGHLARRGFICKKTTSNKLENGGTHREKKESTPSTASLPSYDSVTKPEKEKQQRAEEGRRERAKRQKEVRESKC

[4] = target: pdisplay-LRRC37B-LRR_ECTO (amino acids 468-841) (human, UniProt Q96QE4 468-841); test: cell-surface binding assay

| Binder | Kd [1] | Kd [2] | Kd [3] | Kd [4] |
| --- | --- | --- | --- | --- |
| B1 | 530 nM |  |  |  |
| B2 |  | 1.1 ± 0.261 nM | 49.83 ± 0.261 nM | 1.18 ± 0.28 nM |
